In patent US20020019519:

B1: His and myc epitope tagged human NAK amino acids 1-337 (from pcDNA3.1.NAK(1-337)-Hm, expressed in HEK293 cells) (protein)
chain: MASDSPARSLDEIDLSALRDPAGIFELVELVGNGTYGQVYKGRHVKTGQLAAIKVMDVTGDEEEEIKQEINMLKKYSHHRNIATYYGAFIKKNPPGMDDQLWLVMEFCGAGSVTDLIKNTKGNTLKEEWIAYICREILRGLSHLHQHKVIHRDIKGQNVLLTENAEVKLVDFGVSAQLDRTVGRRNTFIGTPYWMAPEVIACDENPDATYDFKSDLWSLGITAIEMAEGAPPLCDMHPMRALFLIPRNPAPRLKSKKWSKKFQSFIESCLVKNHSQRPATEQLMKHPFIRDQPNERQVRIQLKDHIDRTKKKRGEKDETEYEYSGSEEEEEENDSGE
B2: recombinant full-length human NAK protein with hexa His and myc epitope tags (from pcDNA3.1.NAK-Hm, expressed in HEK293 cells) (protein)
chain: MASDSPARSLDEIDLSALRDPAGIFELVELVGNGTYGQVYKGRHVKTGQLAAIKVMDVTGDEEEEIKQEINMLKKYSHHRNIATYYGAFIKKNPPGMDDQLWLVMEFCGAGSVTDLIKNTKGNTLKEEWIAYICREILRGLSHLHQHKVIHRDIKGQNVLLTENAEVKLVDFGVSAQLDRTVGRRNTFIGTPYWMAPEVIACDENPDATYDFKSDLWSLGITAIEMAEGAPPLCDMHPMRALFLIPRNPAPRLKSKKWSKKFQSFIESCLVKNHSQRPATEQLMKHPFIRDQPNERQVRIQLKDHIDRTKKKRGEKDETEYEYSGSEEEEEENDSGEPSSILNLPGESTLRRDFLRLQLANKERSEALRRQQLEQQQRENEEHKRQLLAERQKRIEEQKEQRRRLEEQQRREKELRKQQEREQRRHYEEQMRREEERRRAEHEQEYIRRQLEEEQRQLEILQQQLLHEQALLLEYKRKQLEEQRQAERLQRQLKQERDYLVSLQHQRQEQRPVEKKPLYHYKEGMSPSEKPAWAKEVEERSRLNRQSSPAMPHKVANRISDPNLPPRSESFSISGVQPARTPPMLRPVDPQIPHLVAVKSQGPALTASQSVHEQPTKGLSGFQEALNVTSHRVEMPRQNSDPTSENPPLPTRIEKFDRSSWLRQEEDIPPKVPQRTTSISPALARKNSPGNGSALGPRLGSQPIRASNPDLRRTEPILESPLQRTSSGSSSSSSTPSSQPSSQGGSQPGSQAGSSERTRVRANSKSEGSPVLPHEPAKVKPEESRDITRPSRPASYKKAIDEDLTALAKELRELRIEETNRPMKKVTDYSSSSEESESSEEEEEDGESETHDGTVAVSDIPRLIPTGAPGSNEQYNVGMVGTHGLETSHADSFSGSISREGTLMIRETSGEKKRSGHSDSNGFAGHINLPDLVQQSHSPAGTPTEGLGRVSTHSQEMDSGTEYGMGSSTKASFTPFVDPRVYQTSPTDEDEEDEESSAAALFTSELLRQEQAKLNEARKISVVNVNPTNIRPHSDTPEIRKYKKRFNSEILCAALWGVNLLVGTENGLMLLDRSGQGKVYNLINRRRFQQMDVLEGLNVLVTISGKKNKLRVYYLSWLRNRILHNDPEVEKKQGWITVGDLEGCIHYKVVKYERIKFLVIALKNAVEIYAWAPKPYHKFMAFKSFADLQHKPLLVDLTVEEGQRLKVIFGSHTGFHVIDVDSGNSYDIYIPSHIQGNITPHAIVILPKTDGMEMLVCYEDEGVYVNTYGRITKDVVLQWGEMPTSVAYIHSNQIMGWGEKAIEIRSVETGHLDGVFMHKRAQRLKFLCERNDKVFFASVRSGGSSQVFFMTLNRNSMMNW
B3: His and myc epitope tagged human NAK amino acids 1-529 (from pcDNA3.1.NAK(1-529)-Hm, expressed in HEK293 cells) (protein)
chain: MASDSPARSLDEIDLSALRDPAGIFELVELVGNGTYGQVYKGRHVKTGQLAAIKVMDVTGDEEEEIKQEINMLKKYSHHRNIATYYGAFIKKNPPGMDDQLWLVMEFCGAGSVTDLIKNTKGNTLKEEWIAYICREILRGLSHLHQHKVIHRDIKGQNVLLTENAEVKLVDFGVSAQLDRTVGRRNTFIGTPYWMAPEVIACDENPDATYDFKSDLWSLGITAIEMAEGAPPLCDMHPMRALFLIPRNPAPRLKSKKWSKKFQSFIESCLVKNHSQRPATEQLMKHPFIRDQPNERQVRIQLKDHIDRTKKKRGEKDETEYEYSGSEEEEEENDSGEPSSILNLPGESTLRRDFLRLQLANKERSEALRRQQLEQQQRENEEHKRQLLAERQKRIEEQKEQRRRLEEQQRREKELRKQQEREQRRHYEEQMRREEERRRAEHEQEYIRRQLEEEQRQLEILQQQLLHEQALLLEYKRKQLEEQRQAERLQRQLKQERDYLVSLQHQRQEQRPVEKKPLYHYKEGMSPSE

Biological target: myelin basic protein (MBP) (Sigma)
Sequence (P02687 whole entry): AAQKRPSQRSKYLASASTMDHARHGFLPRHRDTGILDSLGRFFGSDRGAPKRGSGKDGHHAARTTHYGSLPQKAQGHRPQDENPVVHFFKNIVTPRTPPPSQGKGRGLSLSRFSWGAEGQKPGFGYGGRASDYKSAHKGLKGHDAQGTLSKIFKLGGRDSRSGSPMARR

| Protein | kinase activity (incorporation of phosphate in MBP, 32P, P81 paper, scintillation counting) |
| --- | --- |
| B1 | display increased kinase activity (FIG. 4b) |
| B2 | Recombinant NAK protein displays enzymatic (kinase) activity |
| B3 | display increased kinase activity (FIG. 4b) |
